To fix the notation:
B1: HDV Ribozyme (parent)
chain: GGCCGGCAUGGUCCCAGCCUCCUCGCUGGCGCCGGCUGGGCAACAUUCCGAGGGGACCGUCCCCUCGGUAAUGGCGAAUGGGACCCA

The variants in the series derive from B1. Description: self-cleavage, relative activity (ratio to wild type); higher = more cleavage; co-transcriptional.
On to C14A C18A, for which the self-cleavage worked out at 0.
The same measure for C14A U72C: 0.378; for C14U G81A: 1.32; for C13A C22U: 0.0583.
For C14U G50C, the self-cleavage came to 1.11.
Next, C14U G50U: 1.09; C13G C41U: 0.
The same measure for C14G G59A: 0.962; for C14A G17C: 0.123.
Turning to C13U G54U, the self-cleavage was determined as 0.578.
With C13U G54C, the self-cleavage stood at 0.623.
C14U G67A: the self-cleavage came to 1.09.
Next, U12G U37C: 0.692.
Next, U12G U37G: 0.277; C13A A45U: 0.128.
Next, C13A A45C: 0.0707; C14A C66U: 1.03; C14U A16G: 1.21.
On to C13G C84U, for which the self-cleavage worked out at 0.095.
Next, C14U C36U: 0.96; C14U C57U: 0.878.
For the variant C14U C57G, the self-cleavage is 0.787.
As to C13U G25A, the self-cleavage was determined as 0.122.
The same measure for C13U C33A: 0.0923.
Next, C14A A87C: 0.643; C14A A78G: 0.0519.
C14A A78U: the self-cleavage stood at 0.0791.
Regarding C15A, the self-cleavage was 0.698.
For the variant C13G G67A, the self-cleavage was determined as 0.138.
The same measure for C14A G40C: 0.185.
Next, C14A G40U: 0.261; C13A U46G: 0.0594.
Next, C13G G34U: 0.136; C13G C19A: 0.0437; C13G C19U: 0.0396.
With C14A C32G, the self-cleavage stood at 0.0573.
The same measure for C13U A16U: 1.11; for C13G G40C: 0.0396; for C13G G31U: 0.0405.
For the variant U12G U69C, the self-cleavage was 1.35.
Next, C14A C36U: 0.259; C13G G39C: 0.0462.
Next, C13G G39U: 0.0361.
Next, C14G G81A: 0.957; C14G G81C: 0.974; C13U A43U: 0.151.
Turning to C13U A43C, the self-cleavage was 0.0791.
The same measure for C13U C22A: 0.124.
The same measure for C13U C22G: 0.0831; for C14U G25C: 0.199.
Take C14U G34C: the self-cleavage turned out to be 0.172.
Consider C14U C32U, for which the self-cleavage is 0.86.
The same measure for C14U G80U: 0.4; for C14U G80C: 0.314; for C14G U37C: 0.646.
Next, C14G U37A: 0.0489.
For the variant C13U A51U, the self-cleavage worked out at 0.802.
As for C13U C18G, the self-cleavage stood at 0.0332.
As for C13U C18U, the self-cleavage was found to be 0.295.
The same measure for C14U C66U: 1.25; for C13G U69A: 0.0437.
On to C13G C30G, for which the self-cleavage was found to be 0.0426.
Next, C13G C30A: 0.0978; C13G C30U: 0.26.
In the case of C13A U65C, the self-cleavage came to 0.203.
In the case of C13G G55A, the self-cleavage was 0.0875.
Next, C14G G17U: 0.323; C14G A83U: 0.289; U12G U60A: 0.68.
Next, C14U C19A: 0.0545; C14U C26A: 1.08.
With C14U C26G, the self-cleavage is 0.76.
The same measure for C14A A77U: 0.237.
Take C13A C48U: the self-cleavage turned out to be 0.284.
On to C14G C26A, for which the self-cleavage stood at 0.639.
The same measure for C14G C26G: 0.692.
Take C14U U69C: the self-cleavage turned out to be 1.4.
In the case of C13G C49G, the self-cleavage is 0.356.
As for C13U A56C, the self-cleavage was 0.677.
On to C13G U23G, for which the self-cleavage was found to be 0.
The same measure for C14G U65G: 0.665; for C13U A70G: 0.475.
Take C13G C63U: the self-cleavage amounted to 0.
C14A C84U: the self-cleavage was 0.262.
The same measure for C14A C84A: 0.458; for C14U G76C: 1.06.
Next, C13U C24U: 0.262.
The same measure for C13U G28U: 0.0615; for C14A A71C: 0.166; for C13U U20A: 0.0831.
For C14A G53C, the self-cleavage worked out at 0.665.
The same measure for C13A U20A: 0.0811.
Next, C13A U20G: 0.0594; C13U A77C: 0.293; C14G A51G: 0.475.
Turning to C13U U23G, the self-cleavage came to 0.287.
Next, C14U U20C: 0.133; C13G C44G: 0; C13G G28A: 0.
Regarding C13G G28C, the self-cleavage turned out to be 0.0504.
Next, C14G C24G: 0; C13G A56G: 0.0536; C13U G68C: 0.511.
The same measure for C13U G68U: 0.614; for C13G G82A: 0.0519.
For C13U U60A, the self-cleavage came out at 0.554.
Next, C13U G81A: 0.189.
With C13G G59C, the self-cleavage came to 0.104.
The same measure for C14G U69G: 0.604.
Next, C13U G55C: 0.658.
The same measure for C13A C21G: 0.0332; for C13G A45C: 0.0639; for C13U G50C: 0.636.
With C14U A42G, the self-cleavage was 0.959.
Regarding C13U C57A, the self-cleavage worked out at 0.831.
The same measure for C13U C49A: 0.727; for C13A C84G: 0.237; for C13A A43G: 0.0831.
For the variant C13A C75U, the self-cleavage was found to be 0.163.
In the case of C13G U79C, the self-cleavage was determined as 0.
Next, C14G U47A: 0; C13G C36G: 0.158; C13G A78C: 0.0811.
With C14U A43G, the self-cleavage came to 0.643.
Next, C13G A43C: 0.262; C13G A43U: 0.0923.
The same measure for C14A C22G: 0.0573; for C14U U46A: 0.554; for C14G C36U: 0.375.
Next, C13A G25U: 0.0791; C13A C32U: 0.375.
C13A C32A: the self-cleavage is 0.0326.
Next, C14G C75A: 0.111; C13G C61U: 0.148; C13U C32U: 0.584.
With C13U C32G, the self-cleavage was 0.101.
As to C13U A42U, the self-cleavage came to 0.125.
For the variant C13U A42C, the self-cleavage was 0.0831.
The same measure for C13G C33A: 0.0978; for C13U C48U: 0.642; for C13U C30G: 0.198.
The same measure for C13U C30U: 0.261.
C14A G34A: the self-cleavage was 0.185.
Take C14U G59C: the self-cleavage was found to be 1.01.
For C14G C62G, the self-cleavage was found to be 0.0831.
Turning to C14A G73C, the self-cleavage came out at 0.104.
For C13G C58A, the self-cleavage turned out to be 0.
The same measure for C14A C58A: 1.17.
Consider C14G G25A, for which the self-cleavage worked out at 0.0437.
The same measure for C13G C21A: 0; for C13A C57U: 0.175.
The same measure for C14A C49A: 0.782; for C13U C21U: 0.0563.
As for C13G C32G, the self-cleavage stood at 0.
Turning to C13G C48U, the self-cleavage was found to be 0.0739.
For the variant C14G C18U, the self-cleavage came to 0.115.
The same measure for C14G C18A: 0.17; for C14U A51C: 1.19.
The same measure for U12G U46C: 1.02; for C13A C15G: 0.142; for C13G G25U: 0.232.
Next, C14A U69A: 0.997; C14A C19A: 0.0639; U12G U27C: 0.776.
On to U12G U27G, for which the self-cleavage was 0.639.
Next, C13A C63G: 0.38.
Next, C14G C22G: 0.
